The source of these data is PMC7235218, “HIV-1 Tat – TLR4/MD2 interaction drives the expression of IDO-1 in monocytes derived dendritic cells through NF-κB dependent pathway” (Scientific Reports, 2020).

This experiment has as its target T1, Recombinant human TLR4/MD2 complex (human, UniProt O00206 24-631; Q9Y6Y9 19-160).
T1 construct: Toll-like receptor 4 (TLR4), human, soluble recombinant; MD2 (lymphocyte antigen 96), human, recombinant; No catalogue number is printed; also called rTLR4/MD2; soluble recombinant TLR4/MD2; source: bought: R&D system
The experiment in a line: ELISA; solid-phase binding assay: recombinant TLR4/MD2 (1 µg/ml) coated on 96 maxisorp well plates overnight at 4 °C; GST or GST-Tat at 0.1-1 µM for 2 hours at room temperature; detected with anti-GST and a peroxidase-conjugated secondary antibody. To be noted: both partners purified. For orientation: An ELISA detects its analyte on a solid surface through an enzyme-linked reagent.

T1 sequence (O00206 24-631, chain 1 of 2): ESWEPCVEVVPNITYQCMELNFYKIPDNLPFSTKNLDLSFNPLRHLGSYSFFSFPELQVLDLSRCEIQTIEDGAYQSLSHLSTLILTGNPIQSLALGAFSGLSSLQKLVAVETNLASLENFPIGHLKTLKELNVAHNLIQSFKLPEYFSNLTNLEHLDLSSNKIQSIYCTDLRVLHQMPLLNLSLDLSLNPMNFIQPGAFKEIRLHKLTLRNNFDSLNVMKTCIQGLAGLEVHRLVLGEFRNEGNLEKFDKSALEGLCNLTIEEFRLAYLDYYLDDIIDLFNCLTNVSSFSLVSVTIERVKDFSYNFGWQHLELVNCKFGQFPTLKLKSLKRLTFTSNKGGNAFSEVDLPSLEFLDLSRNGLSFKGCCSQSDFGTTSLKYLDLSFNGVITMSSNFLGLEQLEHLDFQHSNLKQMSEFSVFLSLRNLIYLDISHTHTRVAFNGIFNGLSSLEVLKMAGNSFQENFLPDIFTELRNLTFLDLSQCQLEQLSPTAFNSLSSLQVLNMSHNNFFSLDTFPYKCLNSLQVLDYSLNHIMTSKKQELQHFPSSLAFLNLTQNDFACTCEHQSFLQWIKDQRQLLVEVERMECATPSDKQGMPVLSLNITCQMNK
T1 sequence (Q9Y6Y9 19-160, chain 2 of 2): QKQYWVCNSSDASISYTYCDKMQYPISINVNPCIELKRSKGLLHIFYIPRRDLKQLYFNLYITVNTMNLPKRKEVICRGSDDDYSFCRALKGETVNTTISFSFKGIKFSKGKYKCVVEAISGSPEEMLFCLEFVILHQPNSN

B1: Recombinant HIV-1 Tat full length protein (Tat 1-101) fused to glutathione S-transferase (natural protein)
chain: MEPVDPNLEPWKHPGSQPRTACNNCYCKKCCFHCYACFTRKGLGISYGRKKRRQRRRAPQDSQTHQASLSKQPASQSRGDPTGPTESKKKVERETETDPFD
notes: Tat protein of HIV-1 group M subtype B (isolate SF2), full length protein, Tat 1-101; Endotoxin below 0.3 EU/µg; also called GST-Tat 1-101; GST-Tat1-101
In the case of B1, the binding result is recorded as “binds”.
